Like-named read-outs stand apart in the source and are kept apart here.
Legend:
Assay in all cases: fluorescence polarization
NS3h WT = NS3h WT (dengue virus 4, UniProt P09866 1646-2092)
NS3h WT (T7 Shuffle) [1] = target: T1, NS3h WT (T7 Shuffle) (dengue virus 4, UniProt P09866 1646-2092)
NS3h WT (T7 Shuffle) [2] = target: T1, NS3h WT (T7 Shuffle); remark: listed apart in the source

T1 sequence (P09866 1646-2092): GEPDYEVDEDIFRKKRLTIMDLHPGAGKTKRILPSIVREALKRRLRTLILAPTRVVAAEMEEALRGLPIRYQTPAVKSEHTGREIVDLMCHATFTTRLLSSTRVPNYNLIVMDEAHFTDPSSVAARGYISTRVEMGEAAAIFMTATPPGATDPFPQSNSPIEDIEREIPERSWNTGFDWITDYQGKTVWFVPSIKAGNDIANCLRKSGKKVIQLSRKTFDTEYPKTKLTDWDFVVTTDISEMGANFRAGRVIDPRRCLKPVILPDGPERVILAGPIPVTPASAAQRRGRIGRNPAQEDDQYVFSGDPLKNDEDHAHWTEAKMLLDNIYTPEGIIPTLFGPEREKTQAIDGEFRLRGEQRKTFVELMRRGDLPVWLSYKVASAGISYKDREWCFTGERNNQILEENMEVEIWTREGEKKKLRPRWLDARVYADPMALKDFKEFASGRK
Sequence of NS3h WT (P09866 1646-2092): as above

B1: ppAGUAA Alexa-488 RNA oligo (ssRNA)
RNA: AGUAA
modifications: 5'-diphosphate (pp (so in the source))
NS3h WT
  Kd: 1.9 ± 0.8 µM
NS3h WT (T7 Shuffle) [1]
  Kd: 3.4 ± 1.4 µM
NS3h WT (T7 Shuffle) [2]
  Kd: 4.5 ± 1.5 µM

Source: doi:10.1101/842088
